Like-named read-outs stand apart in the source and are kept apart here.
Legend:
[1] = molecular target: RXFP1(1-72), RXFP1 LDLa module and its 32-residue linker (human); experiment: NMR titration
[2] = molecular target: RXFP2(1-65)-ExLink2 (human); experiment: NMR titration
[3] = molecular target: D42A-RXFP1(1-72) (human); experiment: NMR titration
[4] = molecular target: RXFP1(1-72), RXFP1 LDLa module and its 32-residue linker (human); experiment: NMR titration; remark: listed apart in the source
[5] = molecular target: RXFP2(1-65), RXFP2 LDLa module and its 26-residue linker (human); experiment: NMR titration
[6] = molecular target: RXFP2(1-65)-ExLink2 (human); experiment: NMR titration; remark: listed apart in the source
[7] = molecular target: W46A-RXFP1(1-72) (human); experiment: NMR titration
[8] = molecular target: RXFP1(1-72), RXFP1 LDLa module and its 32-residue linker (human); experiment: 15N-CPMG relaxation dispersion NMR
[9] = molecular target: RXFP1(1-72)-L7K/K17A (human); experiment: 15N-CPMG relaxation dispersion NMR
[10] = molecular target: RXFP1, wild-type receptor expressed on HEK293T cells (human) (UniProt Q9HBX9); experiment: saturation binding of Europium-labelled ligand on cells
[11] = molecular target: RXFP2F11, chimera of the LDLa and GDxxGWxxxF motif (Met1-Phe51) of RXFP2 and the remainder of RXFP1 (human); experiment: as above

UniProt Q9HBX9, sequence (Q9HBX9 whole entry): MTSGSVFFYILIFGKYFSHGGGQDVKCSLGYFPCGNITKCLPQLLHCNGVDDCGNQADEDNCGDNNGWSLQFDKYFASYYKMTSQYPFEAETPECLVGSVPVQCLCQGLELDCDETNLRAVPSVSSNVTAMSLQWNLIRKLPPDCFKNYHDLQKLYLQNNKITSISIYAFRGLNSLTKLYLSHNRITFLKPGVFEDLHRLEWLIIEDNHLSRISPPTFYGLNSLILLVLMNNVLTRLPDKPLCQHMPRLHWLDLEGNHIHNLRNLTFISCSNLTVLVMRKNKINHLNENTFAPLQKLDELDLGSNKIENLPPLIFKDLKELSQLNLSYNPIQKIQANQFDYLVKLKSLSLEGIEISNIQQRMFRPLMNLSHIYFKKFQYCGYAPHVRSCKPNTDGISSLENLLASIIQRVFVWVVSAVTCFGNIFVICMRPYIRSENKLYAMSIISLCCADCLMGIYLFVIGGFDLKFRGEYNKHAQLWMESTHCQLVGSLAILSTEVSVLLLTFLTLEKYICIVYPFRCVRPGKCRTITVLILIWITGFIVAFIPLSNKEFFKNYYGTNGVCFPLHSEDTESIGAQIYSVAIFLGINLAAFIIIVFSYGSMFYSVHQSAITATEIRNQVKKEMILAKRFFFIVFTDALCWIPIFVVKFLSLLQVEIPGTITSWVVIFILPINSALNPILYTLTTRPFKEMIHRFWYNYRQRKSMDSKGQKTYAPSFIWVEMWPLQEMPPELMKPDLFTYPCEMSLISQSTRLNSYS

| Kd [1] [µM] | Kd [2] [µM] | fold decrease in affinity against wild-type RXFP1(1-72) [3] [fold] | Kd [4] [µM] | Kd [5] [µM] | Kd [6] [µM] | fold decrease in affinity against wild-type RXFP1(1-72) [7] [fold] | Kd [8] [µM] | Kd [9] [µM] | Kd [10] [µM] | Kd [11] [µM] | Substance |
| --- | --- | --- | --- | --- | --- | --- | --- | --- | --- | --- | --- |
| 442 | 482 | 4 | 85 | 205 | 171 | 4 | 25 | 30 | – | – | amidated H2 relaxin (both the A and B-chain C-termini amidated) (ligand) |
| – | – | – | – | – | – | – | – | – | 0.0006 | > 0.02 | H2 relaxin, native recombinant (serelaxin), Europium-labelled for the binding assay (ligand) |

Reference: article doi:10.1101/2021.06.06.446989
